Data published in paper doi:10.1101/2025.04.08.647683.

Legend:
[1] = target: T1, QuiR2;QuiR (Listeria monocytogenes EGD-e;Listeria monocytogenes EGD-e?) (UniProt Q8Y543+Q8Y9N7); experiment: EMSA
T1 sequence 1: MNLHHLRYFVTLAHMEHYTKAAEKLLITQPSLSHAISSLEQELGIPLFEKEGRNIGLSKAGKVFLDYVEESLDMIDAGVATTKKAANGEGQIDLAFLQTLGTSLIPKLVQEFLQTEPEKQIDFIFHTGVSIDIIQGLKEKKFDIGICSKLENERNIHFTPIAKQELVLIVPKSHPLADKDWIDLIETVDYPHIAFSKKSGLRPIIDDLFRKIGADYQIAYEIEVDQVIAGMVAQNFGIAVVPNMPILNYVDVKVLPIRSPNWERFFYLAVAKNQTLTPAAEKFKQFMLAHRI
T1 sequence 2: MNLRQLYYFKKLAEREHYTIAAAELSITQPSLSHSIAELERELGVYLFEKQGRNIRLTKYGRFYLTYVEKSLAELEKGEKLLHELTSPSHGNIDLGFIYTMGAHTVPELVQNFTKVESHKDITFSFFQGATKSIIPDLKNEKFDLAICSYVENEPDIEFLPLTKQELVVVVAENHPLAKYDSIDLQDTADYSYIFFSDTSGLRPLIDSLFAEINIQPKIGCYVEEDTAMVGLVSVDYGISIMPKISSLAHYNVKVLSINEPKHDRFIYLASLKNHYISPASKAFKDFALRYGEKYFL

[2] = target: T2, QuiR2 (Listeria monocytogenes EGD-e) (UniProt Q8Y543); experiment: EMSA
T2 sequence: T1 sequence 1

Sequence: CGCAAGTTCATCGGTTAACCTCCTCGGAATGCCTTGATAACTCTATTGTAAGCGATTGTATAGAAAAAATCTATGGATAAATCGAAAAATATACATTAGATTAATAATTATTCCTGACTTATAATGAAAGAGAAATAAGATTGTGCATTATTGAACGTGAATAATGTAACAAATCATTTGCTGAGATTATAGTCGCAGGAGGCTTATTATGACAGATTATCCGAG (double strand) [qui1 intergenic region probe (225 nt)]
- binding [1]: binds
- binding [2]: binds
